Broadly, the IC50 is the concentration that inhibits the measured activity by half.

Common to all, as to assay: cell-based or functional assay
Assay [1] concerns the target HIV-1 MGRM-C-028 envelope glycoprotein (Env) (HIV-1).
Assay [2] concerns the target HIV-1 92RW020 envelope glycoprotein (Env) (HIV-1).
The target of assay [3] is HIV-1 NL43 envelope glycoprotein (Env) on virus (HIV-1, clade B, isolate NL43).
In assay [4] the target is HIV-1 92TH021 envelope glycoprotein (Env) on virus (HIV-1, clade AE, isolate 92TH021).
Assay [5] has as its target HIV-1 APV17 envelope glycoprotein (Env) on virus (HIV-1, clade B, isolate APV17).
Assay [6] deals with HIV-1 JRCSF envelope glycoprotein (Env), clade B pseudovirus (HIV-1).
Assay [7] concerns the target HIV-1 93IN905 envelope glycoprotein (Env), clade C pseudovirus (HIV-1).
The target in assay [8] is HIV-1 APV17 envelope glycoprotein (Env), clade B pseudovirus (HIV-1).
Assay [9] deals with HIV-1 Env of pseudovirus CAP45 (HIV-1).
Assay [10] has as its target HIV-1 Env of pseudovirus ZM249 (HIV-1).
The target in assay [11] is HIV-1 Env of pseudovirus PVO.4 (HIV-1).
In assay [12] the target is HIV-1 Env of pseudovirus ZM214 (HIV-1).
The target of assay [13] is HIV-1 Env of pseudovirus TR0.11 (HIV-1).
For assay [14], the target named is HIV-1 envelope glycoprotein (Env) of isolate JRCSF (HIV-1) (UniProt P20871).
Assay [15] concerns the target HIV-1 envelope glycoprotein (Env) of isolate MGRM-AG-005 (HIV-1).
The target in assay [16] is HIV-1 envelope glycoprotein (Env) of isolate MGRM-D-001 (HIV-1).
Assay [17] has as its target HIV-1 envelope glycoprotein (Env) of isolate MGRM-A-010 (HIV-1).
Assay [18] has as its target HIV-1 envelope glycoprotein (Env) of isolate APV6 (HIV-1).
Assay [19] addresses HIV-1 envelope glycoprotein (Env) of isolate 92TH021 (HIV-1).
Assay [20] addresses HIV-1 envelope glycoprotein (Env) of isolate MGRM-D-018 (HIV-1).
In assay [21] the target is HIV-1 Env of pseudovirus 92UG001 (HIV-1).
The target in assay [22] is HIV-1 Env of isolate MG RM-D-029 (subtype D) (HIV-1).
Assay [23] has as its target HIV-1 envelope glycoprotein (Env) of isolate MG RM-A-006 (HIV-1).
Assay [24] has as its target HIV-1 Env of isolate MGRM-Chronic-B-003 (subtype B), on pseudovirus (HIV-1).
For assay [25], the target named is HIV-1 93UG077 Env (pseudovirus) (HIV-1).
In assay [26] the target is HIV-1 92RW020 Env (pseudovirus) (HIV-1).
The target of assay [27] is HIV-1 MGRM-C-028 Env (pseudovirus) (HIV-1).
The target of assay [28] is HIV-1 MGRM-C-027 Env (pseudovirus) (HIV-1).
In assay [29] the target is aMLV envelope protein on pseudovirus (control virus).
For assay [30], the target named is HIV-1 JR-CSF Env N241A (HIV-1 (isolate JR-CSF)) (UniProt P20871).
In assay [31] the target is HIV-1 93UG077 Env (HIV-1 isolate 93UG077 (clade A)).
Assay [32] deals with HIV-1 92RW020 Env (HIV-1 isolate 92RW020 (clade A)).

5329_C19 (PGT-136) (antibody), sequence (VH): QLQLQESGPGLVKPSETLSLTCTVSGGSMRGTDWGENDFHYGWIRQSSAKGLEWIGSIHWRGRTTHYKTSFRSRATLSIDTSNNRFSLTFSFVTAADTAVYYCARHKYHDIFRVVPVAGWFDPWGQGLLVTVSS
5329_C19 (PGT-136) (antibody), sequence (VL): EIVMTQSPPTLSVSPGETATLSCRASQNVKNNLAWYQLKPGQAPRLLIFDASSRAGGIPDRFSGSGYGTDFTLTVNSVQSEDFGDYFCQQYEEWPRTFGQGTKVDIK
1443_C16 (PG16) (TCN-116) (antibody), sequence (VH): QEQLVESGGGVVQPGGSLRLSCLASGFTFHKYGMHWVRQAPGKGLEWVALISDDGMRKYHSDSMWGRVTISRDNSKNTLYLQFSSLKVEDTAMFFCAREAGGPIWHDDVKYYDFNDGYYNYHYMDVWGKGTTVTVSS
1443_C16 (PG16) (TCN-116) (antibody), sequence (VL): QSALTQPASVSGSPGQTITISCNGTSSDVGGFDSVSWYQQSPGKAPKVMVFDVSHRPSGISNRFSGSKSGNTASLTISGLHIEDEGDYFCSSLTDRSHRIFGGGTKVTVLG

In [1], 5329_C19 (PGT-136) (antibody) had a Neutralization IC80 above 10 µg/mL, a Neutralization IC90 above 10 µg/mL, a Neutralization IC95 above 10 µg/mL and a neutralization IC50 above 10 µg/mL. In addition, in assay [2], the Neutralization IC80 is above 10 µg/mL, the Neutralization IC90 is above 10 µg/mL, the Neutralization IC95 is above 10 µg/mL and the neutralization IC50 was 0.738 µg/mL.
On to 4877_D15 (PGT-122) (antibody), for which, in [3], the Neutralization IC80 was above 10 µg/mL, the Neutralization IC90 was above 10 µg/mL, the Neutralization IC95 was above 10 µg/mL and the neutralization IC50 was above 10 µg/mL. Moreover, in assay [4], the Neutralization IC80 was above 10 µg/mL, the Neutralization IC90 was above 10 µg/mL, the Neutralization IC95 is above 10 µg/mL and the neutralization IC50 is above 10 µg/mL. In assay [5], this substance came in with a Neutralization IC80 of 1.76 µg/mL, a Neutralization IC90 of 3.58 µg/mL, a Neutralization IC95 of 6.92 µg/mL and a neutralization IC50 of 0.522 µg/mL.
On to 4858_P08 (PGT-123) (antibody), for which, in [6], the IC50, pseudovirus neutralization came out at 0.0423 µg/mL; the IC80 (pseudovirus neutralization) was 0.143 µg/mL; the IC90 (pseudovirus neutralization) came to 0.289 µg/mL; the IC95 (pseudovirus neutralization) is 0.547 µg/mL. In [7], this substance yielded an IC50, pseudovirus neutralization of 0.0071 µg/mL; an IC80 (pseudovirus neutralization) of 0.0281 µg/mL; an IC90 (pseudovirus neutralization) of 0.0625 µg/mL; an IC95 (pseudovirus neutralization) of 0.131 µg/mL. In assay [8], this substance displayed an IC50, pseudovirus neutralization of 0.18 µg/mL; an IC80 (pseudovirus neutralization) of 0.539 µg/mL; an IC90 (pseudovirus neutralization) of 1.01 µg/mL; an IC95 (pseudovirus neutralization) of 1.75 µg/mL.
Take 1443_C16 (PG16) (TCN-116) (antibody): the IC50, pseudovirus neutralization (TZM-bl assay) in assay [9] is below 0.01 µg/mL; in assay [10] it was below 0.01 µg/mL; in [11], 12.3 µg/mL; in assay [12], above 25 µg/mL; in [13] it was 3.61 µg/mL.
For 5141_B17 (PGT-126) (antibody), the Neutralization IC80 in assay [14] is 0.018 µg/mL; in [15], above 10 µg/mL; in [16], 0.333 µg/mL; in assay [17], 0.0137 µg/mL; in assay [18], 0.0681 µg/mL; in [19], 1.62 µg/mL. The substance also had a Neutralization IC80 in assay [20] of 0.0391 µg/mL. The Neutralization IC90 in [14] was 0.0339 µg/mL; in assay [15], above 10 µg/mL; in [16], 0.832 µg/mL; in assay [17] it was 0.0316 µg/mL; in assay [18], 0.123 µg/mL; in [19], 6.91 µg/mL. This substance also registered a Neutralization IC90 in [20] of 0.0918 µg/mL. The Neutralization IC95 in [14] was 0.0608 µg/mL; in [15] it was above 10 µg/mL; in assay [16], 1.8 µg/mL; in [17], 0.0687 µg/mL; in [18], 0.213 µg/mL; in [19], above 10 µg/mL. In assay [20], this substance had a Neutralization IC95 of 0.205 µg/mL. For the same substance, the neutralization IC50 in assay [14] is 0.0061 µg/mL; in [15], 1.35 µg/mL; in assay [16] it was 0.0639 µg/mL; in assay [17], 0.0033 µg/mL; in assay [18], 0.0249 µg/mL; in assay [19], 0.115 µg/mL. Besides, in assay [20], the neutralization IC50 was determined as 0.0093 µg/mL.
Turning to PGV04 (antibody), the IC50, pseudovirus neutralization in assay [21] stood at 0.553 µg/mL. The substance further yielded an IC50 (µg/mL), pseudovirus neutralization in assay [22] of 1.56 µg/mL. For the same substance, the IC50 in assay [23] stood at 0.244 µg/mL. This substance showed an IC50, single-round pseudovirus neutralization in [24] of 0.258 µg/mL.
With 5123_A06 (PGT-125) (antibody), in assay [25], the Neutralization by PGT-125, IC50 was 0.0262 µg/mL; the Neutralization by PGT-125, IC80 is 0.0926 µg/mL; the Neutralization by PGT-125, IC90 worked out at 0.206 µg/mL; the Neutralization by PGT-125, IC95 amounted to 0.487 µg/mL. In [26], this substance yielded a Neutralization by PGT-125, IC50 of 0.0028 µg/mL; a Neutralization by PGT-125, IC80 of 0.011 µg/mL; a Neutralization by PGT-125, IC90 of 0.0248 µg/mL; a Neutralization by PGT-125, IC95 of 0.0526 µg/mL. In assay [27], this substance came in with a Neutralization by PGT-125, IC50 of 5.78 µg/mL; a Neutralization by PGT-125, IC80 above 10 µg/mL; a Neutralization by PGT-125, IC90 above 10 µg/mL; a Neutralization by PGT-125, IC95 above 10 µg/mL. Moreover, in assay [28], the Neutralization by PGT-125, IC50 is above 10 µg/mL; the Neutralization by PGT-125, IC80 is above 10 µg/mL; the Neutralization by PGT-125, IC90 is above 10 µg/mL; the Neutralization by PGT-125, IC95 is above 10 µg/mL.
5343_B08 (PGT-135) (antibody): in [29], the Neutralization IC80 was above 10 µg/mL, the Neutralization IC90 was above 10 µg/mL, the Neutralization IC95 is above 10 µg/mL and the neutralization IC50 was above 10 µg/mL. In addition, the Fold IC50 increase relative to wild-type in assay [30] amounted to 0.1 fold.
For 4838_L06 (PGT-121) (antibody), in assay [31], the Neutralization IC90 came out at 0.369 µg/mL and the Neutralization IC95 was 0.74 µg/mL. In assay [32], this substance yielded a Neutralization IC80 of 0.0188 µg/mL, a Neutralization IC90 of 0.0361 µg/mL and a Neutralization IC95 of 0.0671 µg/mL.

(Values after patent US20240132578A1.)
